This is an account of results in publication PMC3753260, “High Yield Production of a Soluble Human Interleukin-3 Variant from E. coli with Wild-Type Bioactivity and Improved Radiolabeling Properties” (PLoS ONE, 2013).

For one experiment, the target named is T1, human IL-3Rα subunit (human, UniProt P26951 19-378).
T1 construct: human interleukin-3 receptor α subunit, transiently expressed on COS cells; also called hIL-3Rα; IL-3-specific α-subunit; source: COS cells, transfected by electroporation (pSG5: IL-3Rα), on cells
As to the kind of experiment: radioligand binding; ^125I-labelled hIL-3(13-125; W13Y) on COS cells transiently expressing IL-3 receptors; Scatchard analysis with EBDA-LIGAND software. The conditions noted are these: one partner purified.

The target in experiment [1] is T2, hIL-3Rα and hβc subunits co-expressed (hIL-3 receptor) (human, UniProt P26951 19-378; P32927 17-897).
T2 construct: human interleukin-3 receptor α subunit, transiently co-expressed with βc on COS cells; human common β-subunit (βc) shared with the IL-5 and GM-CSF receptors, transiently co-expressed with IL-3Rα on COS cells; The two subunits were co-expressed on the same cells; also called IL-3Rα and βc; hIL-3 receptors; source: COS cells, transfected by electroporation (pSG5: IL-3Rα and pSG5: βc), on cells
The description is as above. The conditions noted are these: one partner purified.

T1 sequence (P26951 19-378): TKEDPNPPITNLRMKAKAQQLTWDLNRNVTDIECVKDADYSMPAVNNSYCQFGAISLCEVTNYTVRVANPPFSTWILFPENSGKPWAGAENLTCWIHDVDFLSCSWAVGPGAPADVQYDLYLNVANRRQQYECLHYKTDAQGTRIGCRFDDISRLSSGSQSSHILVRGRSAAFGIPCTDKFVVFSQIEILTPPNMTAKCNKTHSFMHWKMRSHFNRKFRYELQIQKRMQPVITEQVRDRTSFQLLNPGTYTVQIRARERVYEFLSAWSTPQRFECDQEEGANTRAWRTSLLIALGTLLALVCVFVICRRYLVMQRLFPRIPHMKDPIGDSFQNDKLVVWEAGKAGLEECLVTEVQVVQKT
T2 sequence (P26951 19-378, chain 1 of 2): as the sequence (P26951 19-378) above
T2 sequence (P32927 17-897, chain 2 of 2): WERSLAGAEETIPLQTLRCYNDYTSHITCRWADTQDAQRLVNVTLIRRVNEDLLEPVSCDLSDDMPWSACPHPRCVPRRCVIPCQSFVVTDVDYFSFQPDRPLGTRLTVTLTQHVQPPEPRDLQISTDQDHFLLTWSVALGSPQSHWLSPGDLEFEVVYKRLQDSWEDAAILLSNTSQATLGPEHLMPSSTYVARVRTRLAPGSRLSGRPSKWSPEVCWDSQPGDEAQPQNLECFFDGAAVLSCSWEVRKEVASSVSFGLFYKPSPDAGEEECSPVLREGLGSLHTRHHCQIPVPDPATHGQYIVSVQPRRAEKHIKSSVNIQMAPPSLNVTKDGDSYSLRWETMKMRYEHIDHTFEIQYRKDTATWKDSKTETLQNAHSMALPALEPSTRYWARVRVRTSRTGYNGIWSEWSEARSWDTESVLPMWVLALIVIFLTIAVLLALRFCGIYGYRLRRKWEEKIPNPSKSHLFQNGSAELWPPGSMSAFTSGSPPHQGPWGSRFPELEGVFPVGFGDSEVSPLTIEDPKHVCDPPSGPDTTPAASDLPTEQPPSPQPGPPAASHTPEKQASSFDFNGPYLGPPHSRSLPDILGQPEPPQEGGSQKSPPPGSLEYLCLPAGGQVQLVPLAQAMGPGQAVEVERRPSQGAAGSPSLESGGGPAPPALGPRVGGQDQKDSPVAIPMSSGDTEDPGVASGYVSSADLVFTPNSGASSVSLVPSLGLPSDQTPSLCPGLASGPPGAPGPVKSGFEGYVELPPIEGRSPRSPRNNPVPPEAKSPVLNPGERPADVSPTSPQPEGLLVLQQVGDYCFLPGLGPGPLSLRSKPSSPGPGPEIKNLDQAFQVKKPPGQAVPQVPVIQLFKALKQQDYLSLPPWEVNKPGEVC

B1: ^125I-hIL-3(13-125; W13Y) (ligand, human)
chain: GAMGSYVNCSNMIDEIITHLKQPPLPLLDFNNLNGEDQDILMENNLRRPNLEAFNRAVKSLQNASAIESILKNLLPCLPLATAAPTRHPIHIKDGDWNEFRRKLTFYLKTLENAQAQQ
modifications: ^125I radio-iodinated (tyrosine labelling, Pierce Pre-Coated Iodination tubes / Iodogen)
notes: non-native N-terminal overhang left after TEV protease cleavage of the NusA-His6 tag (cloning artifact); human interleukin-3, four-helix bundle core, residues 13-125 with W13Y; numbers count on: the mature protein; Vector pETNusH HTb; also called hIL-3(W13Y); hIL-3 analog; source: E. coli BL21 CodonPlus (DE3)-RIPL, purified (Ni-NTA, TEV cleavage, SEC, in some cases RP-HPLC), then radio-iodinated; …
With B1, the values for the Kd (with human IL-3Rα subunit; in experiment [1]) were 143 nM and 0.456 nM, respectively.

The Kd is the constant that tells how readily two partners part at equilibrium. High values mean a looser complex, low ones a tighter complex.
